B1: AtaT2 toxin (enzyme)
chain: MGITAPTPLTSEHNLADFCCSDHGMNEWLKKKALKNHSSGLSRVYVICIANTRQVIGYYCLSTGSIQRNLAPGAMRRNAPESLPVVVLGRLAIDQAWAGKGLGVALLKDAVYRTMSIAQQVGVRALIVHALDDSVRNFYLKYAFVPSPFQSLTLLYPITLE
B2: AtaR2 antitoxin (natural protein)
chain: MKPESKEAPINIRAKASQRDLIDMAANLVAKSRTDFMLDAACREAQDILLDQRLFILDDEQYDAFLAALDAPITAERQAKINALMNRKSPWE

Tests used:
[1] = biological target: the molecule itself; assay: SEC
[2] = biological target: the molecule itself; assay: SEC; […]; 10 mM Tris-HCl pH 8.0, 150 mM NaCl; 0.2 ml/min; […]

| Protein | stoichiometry N [1] | stoichiometry N [2] |
| --- | --- | --- |
| B1 | 2 |  |
| B2 |  | 4 |
